Where two headings read alike, the source gives them in different places. Bounds are passed on as bounds.

Assay [1] deals with T1, GST-human NOGO-A56 (human).
T1 construct: Expressed in E. coli BL21 from pGEX-6P1 and purified on glutathione-sepharose; the GST tag is part of the protein in the assays; also called GST-Nogo-A 5+6; GST Nogo-A 5 + 6
As to the kind of experiment: SPR (Biacore) off-rate ranking on GST-human NOGO-A56 chip, one experiment.

Assay [2] has as its target T1, GST-human NOGO-A56. Put plainly: SPR (Biacore) off-rate on NOGO chip, panel of H6FL CDR H3 variants with L13FL.
Assay [3] addresses T2, Cynomolgus monkey NOGO (A56) plus GST tag (cynomolgus monkey).
T2 construct: also called cynomolgus Nogo-A; GST-NOGO-A56 from cynomolgus
As to the kind of experiment: SPR (Biacore), both formats.

The target of assay [4] is T3, Rat NOGO (A56) plus GST tag (rat).
T3 construct: also called GST-NOGO-A56 from rat
Put plainly: SPR (Biacore), both formats.

Assay [5] concerns the target T1, GST-human NOGO-A56. Put plainly: direct ELISA, human NOGO-A (GST-human NOGO-A56) coated at 1 ug/ml, Abs490.
Assay [6] concerns the target T4, native human Nogo-A of IMR32 neuroblastoma cells (intracellular) (human, UniProt Q9NQC3 1-1192).
T4 construct: whole, on cells; Detected inside permeabilised, fixed cells (ER-resident), not on the cell surface; also called intracellular Nogo-A; native Nogo-A
T4 sequence (looked up): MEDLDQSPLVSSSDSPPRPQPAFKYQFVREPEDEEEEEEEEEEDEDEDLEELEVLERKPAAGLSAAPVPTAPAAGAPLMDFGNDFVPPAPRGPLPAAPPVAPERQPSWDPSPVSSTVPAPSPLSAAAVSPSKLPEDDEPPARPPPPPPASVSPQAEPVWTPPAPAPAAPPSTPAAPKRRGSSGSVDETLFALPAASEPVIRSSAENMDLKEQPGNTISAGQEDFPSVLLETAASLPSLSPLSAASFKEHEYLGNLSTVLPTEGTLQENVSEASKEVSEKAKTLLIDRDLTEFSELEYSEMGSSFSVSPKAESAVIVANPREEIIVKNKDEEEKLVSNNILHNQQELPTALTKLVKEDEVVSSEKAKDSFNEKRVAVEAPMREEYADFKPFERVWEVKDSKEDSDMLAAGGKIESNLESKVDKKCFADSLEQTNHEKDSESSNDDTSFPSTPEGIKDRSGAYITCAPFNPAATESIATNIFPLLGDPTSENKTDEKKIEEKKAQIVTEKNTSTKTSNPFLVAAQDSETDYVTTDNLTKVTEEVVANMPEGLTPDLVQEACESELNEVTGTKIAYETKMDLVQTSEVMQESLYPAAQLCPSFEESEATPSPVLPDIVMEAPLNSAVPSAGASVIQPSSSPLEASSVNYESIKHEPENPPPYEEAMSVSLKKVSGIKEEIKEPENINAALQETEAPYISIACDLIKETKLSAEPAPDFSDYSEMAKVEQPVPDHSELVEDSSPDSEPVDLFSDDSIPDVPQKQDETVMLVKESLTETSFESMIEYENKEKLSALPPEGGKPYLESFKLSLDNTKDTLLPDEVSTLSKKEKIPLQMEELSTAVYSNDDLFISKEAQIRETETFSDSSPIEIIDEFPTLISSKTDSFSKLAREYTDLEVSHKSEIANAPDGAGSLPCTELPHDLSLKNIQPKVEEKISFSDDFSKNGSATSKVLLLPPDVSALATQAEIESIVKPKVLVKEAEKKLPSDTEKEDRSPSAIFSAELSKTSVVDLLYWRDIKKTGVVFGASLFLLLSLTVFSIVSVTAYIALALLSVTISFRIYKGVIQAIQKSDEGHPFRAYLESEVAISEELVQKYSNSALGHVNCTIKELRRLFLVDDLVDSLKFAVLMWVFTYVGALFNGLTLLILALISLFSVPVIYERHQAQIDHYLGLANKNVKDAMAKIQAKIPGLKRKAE
Put plainly: flow cytometry on permeabilised, fixed IMR32 cells (intracellular Nogo-A), PE anti-human IgG, MFI.

Assay [7] deals with T1, GST-human NOGO-A56. As to the kind of experiment: competition ELISA on coated GST-Nogo-A 5+6; competitor 2A10 pre-mixed, bound 2A10 detected with anti-mouse IgG-HRP.
The target in assay [8] is T2, Cynomolgus monkey NOGO (A56) plus GST …. Put plainly: SPR (Biacore), reverse format: antibody captured by Protein A.
Assay [9] addresses T3, Rat NOGO (A56) plus GST tag. Described as above.
For assay [10], the target named is T5, Squirrel monkey NOGO (A56) plus GST tag (squirrel monkey).
T5 construct: also called GST-NOGO-A56 from squirrel monkey
As to the kind of experiment: SPR (Biacore), reverse format: antibody captured by Protein A; end of the range tied to squirrel monkey by Table 19.

For assay [11], the target named is T6, peptide 6 (biotin-SGSG-TPSPVLPDIVMEAPLN) (human, N-terminal biotin).
T6 peptide: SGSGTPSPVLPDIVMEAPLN
As to the kind of experiment: peptide ELISA: biotinylated 16-mer peptide on streptavidin, antibody at 5 ug/ml, kappa-chain peroxidase conjugate, Abs490.

The target in assay [12] is T7, peptide 7 (biotin-SGSG-VLPDIVMEAPLNSAVP) (human, N-terminal biotin).
T7 peptide: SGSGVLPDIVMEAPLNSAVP
Described as above.

Assay [13] deals with T1, GST-human NOGO-A56. Put plainly: competition ELISA on coated GST-Nogo-A 5+6; competitor 2A10 pre-mixed, bound 2A10 detected with anti-mouse IgG-HRP. This is another data set of the same source.
A further assay concerns the target T8, Human C1q (Sigma, C0660) (human, UniProt P02745 23-245; P02746 28-253; P02747 29-245).
T8 construct: Bought protein
Put plainly: C1q ELISA: antibody coated at 1 mcg/ml, human C1q added, anti-human C1q-HRP, Abs490.

Assay [14] addresses T9, Marmoset NOGO (A56) plus GST tag (marmoset).
T9 construct: also called GST-NOGO-A56 from marmoset
As to the kind of experiment: SPR (Biacore), reverse format: antibody captured by Protein A; end of the range tied to marmoset by Table 19.

T1 sequence (chain, as listed by the source limits assumed): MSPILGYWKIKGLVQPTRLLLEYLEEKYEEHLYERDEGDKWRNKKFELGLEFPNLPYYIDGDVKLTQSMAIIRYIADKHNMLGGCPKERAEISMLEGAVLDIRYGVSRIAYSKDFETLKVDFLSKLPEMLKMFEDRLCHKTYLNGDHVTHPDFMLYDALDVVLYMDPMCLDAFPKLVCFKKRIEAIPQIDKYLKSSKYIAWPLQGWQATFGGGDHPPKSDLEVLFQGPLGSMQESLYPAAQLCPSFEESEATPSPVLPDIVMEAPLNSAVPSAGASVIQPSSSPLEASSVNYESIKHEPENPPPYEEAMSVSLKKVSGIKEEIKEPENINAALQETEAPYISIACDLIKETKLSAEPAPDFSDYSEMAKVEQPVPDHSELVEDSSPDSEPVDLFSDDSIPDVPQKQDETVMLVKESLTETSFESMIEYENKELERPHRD
T3 sequence (chain, as listed by the source limits assumed): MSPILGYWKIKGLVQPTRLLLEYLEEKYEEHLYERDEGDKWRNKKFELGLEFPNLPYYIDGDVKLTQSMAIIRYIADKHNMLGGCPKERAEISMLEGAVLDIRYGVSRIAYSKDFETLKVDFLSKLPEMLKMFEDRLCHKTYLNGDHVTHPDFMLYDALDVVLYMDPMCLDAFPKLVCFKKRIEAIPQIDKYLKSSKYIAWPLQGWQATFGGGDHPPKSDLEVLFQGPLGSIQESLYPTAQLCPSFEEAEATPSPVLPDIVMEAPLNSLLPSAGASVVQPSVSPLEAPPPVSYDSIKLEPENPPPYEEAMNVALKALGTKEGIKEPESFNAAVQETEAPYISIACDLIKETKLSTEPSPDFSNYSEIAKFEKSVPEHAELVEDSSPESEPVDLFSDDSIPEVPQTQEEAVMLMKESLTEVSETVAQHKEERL
T2 sequence (chain, as listed by the source limits assumed): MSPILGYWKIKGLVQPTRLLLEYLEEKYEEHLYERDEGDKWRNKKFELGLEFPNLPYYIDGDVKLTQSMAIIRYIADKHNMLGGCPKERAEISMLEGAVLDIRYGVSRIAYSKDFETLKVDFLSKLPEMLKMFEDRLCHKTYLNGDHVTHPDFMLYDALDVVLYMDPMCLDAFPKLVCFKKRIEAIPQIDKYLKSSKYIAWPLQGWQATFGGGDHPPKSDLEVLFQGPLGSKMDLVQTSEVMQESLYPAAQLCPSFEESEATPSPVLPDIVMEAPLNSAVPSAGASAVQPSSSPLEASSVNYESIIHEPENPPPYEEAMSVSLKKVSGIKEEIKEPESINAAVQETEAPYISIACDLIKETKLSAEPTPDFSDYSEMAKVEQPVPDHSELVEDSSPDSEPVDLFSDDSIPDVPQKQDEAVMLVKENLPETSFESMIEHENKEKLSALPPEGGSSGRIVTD
T9 sequence (chain, as listed by the source limits assumed): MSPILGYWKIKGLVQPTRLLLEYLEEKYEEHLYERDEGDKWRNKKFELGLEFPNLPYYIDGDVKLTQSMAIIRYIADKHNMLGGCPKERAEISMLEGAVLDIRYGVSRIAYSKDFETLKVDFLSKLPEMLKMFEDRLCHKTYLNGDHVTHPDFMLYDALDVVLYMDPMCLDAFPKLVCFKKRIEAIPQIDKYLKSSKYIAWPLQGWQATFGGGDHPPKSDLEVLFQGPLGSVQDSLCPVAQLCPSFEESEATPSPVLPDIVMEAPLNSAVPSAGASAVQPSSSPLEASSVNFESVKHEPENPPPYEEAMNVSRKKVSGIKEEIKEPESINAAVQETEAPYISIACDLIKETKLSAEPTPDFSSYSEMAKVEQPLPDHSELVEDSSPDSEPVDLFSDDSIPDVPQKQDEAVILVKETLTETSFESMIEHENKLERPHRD
T8 sequence (P02745 23-245 limits assumed, chain 1 of 3): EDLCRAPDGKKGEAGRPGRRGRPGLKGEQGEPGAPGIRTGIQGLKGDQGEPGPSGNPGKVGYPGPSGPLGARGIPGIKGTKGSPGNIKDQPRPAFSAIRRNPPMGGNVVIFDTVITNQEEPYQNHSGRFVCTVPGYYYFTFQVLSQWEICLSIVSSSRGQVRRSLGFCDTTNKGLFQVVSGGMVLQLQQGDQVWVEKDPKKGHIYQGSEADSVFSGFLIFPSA
T8 sequence (P02746 28-253 limits assumed, chain 2 of 3): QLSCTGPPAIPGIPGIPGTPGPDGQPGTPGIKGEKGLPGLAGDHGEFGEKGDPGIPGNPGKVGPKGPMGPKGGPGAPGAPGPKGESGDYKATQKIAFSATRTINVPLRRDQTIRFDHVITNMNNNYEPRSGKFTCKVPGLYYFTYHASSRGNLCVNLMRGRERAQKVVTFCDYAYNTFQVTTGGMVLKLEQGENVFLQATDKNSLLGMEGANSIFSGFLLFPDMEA
T8 sequence (P02747 29-245 limits assumed, chain 3 of 3): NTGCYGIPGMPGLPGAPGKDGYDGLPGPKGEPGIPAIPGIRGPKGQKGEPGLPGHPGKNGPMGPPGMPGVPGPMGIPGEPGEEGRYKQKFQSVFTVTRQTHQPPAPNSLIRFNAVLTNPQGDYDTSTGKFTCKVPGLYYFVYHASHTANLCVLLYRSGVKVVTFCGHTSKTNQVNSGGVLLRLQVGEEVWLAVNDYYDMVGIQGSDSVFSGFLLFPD
T5 sequence (chain, as listed by the source limits assumed): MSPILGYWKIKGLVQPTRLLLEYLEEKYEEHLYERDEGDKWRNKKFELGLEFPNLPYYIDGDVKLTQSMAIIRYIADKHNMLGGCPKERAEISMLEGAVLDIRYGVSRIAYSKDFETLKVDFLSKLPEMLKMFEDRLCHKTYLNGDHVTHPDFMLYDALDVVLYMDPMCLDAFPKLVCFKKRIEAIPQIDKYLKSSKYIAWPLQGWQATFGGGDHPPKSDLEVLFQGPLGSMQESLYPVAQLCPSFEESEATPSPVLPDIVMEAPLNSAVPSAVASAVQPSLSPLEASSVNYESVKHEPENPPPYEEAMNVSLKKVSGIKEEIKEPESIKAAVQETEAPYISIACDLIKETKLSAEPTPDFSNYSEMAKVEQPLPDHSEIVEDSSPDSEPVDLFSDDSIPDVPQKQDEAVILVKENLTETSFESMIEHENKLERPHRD

B1: HcLc (chimera of 2A10: murine 2A10 VH and VL with human IgG constant regions) (antibody, V domains shown)
VH: QVQLQQPGTELVKPGASVKLSCKASGYTFTSYWMHWVKQRPGQGLEWIGNINPSNGGTNYNEKFKSKATLTVDKSSSTAYMQLSSLTSEDSAVYYCELGQGYWGQGTLVTVSS
VL: DIVITQDELSNPVTSGESVSISCRSSKSLLYKDGKTYLNWFLQRPGQSPQLLIYLMSTRASGVSDRFSGSGSGTDFTLEISRVKAEDVGVYYCQQLVEYPLTFGAGTKLELKR
notes: also called chimeric antibody; chimeric form of the parental antibody
Consider B1, for which the koff turned out to be 0.00266 s⁻¹ in the assay with GST-human NOGO-A56 [1] and 0.00558 s⁻¹ with GST-human NOGO-A56 [2]. The “fold of the affinity for human Nogo-A” value in assay [3] was no more than 8.5 fold; in [4], no more than 4 fold. In addition, the “EC50 (read off the curve)” value with GST-human NOGO-A56 [5] was roughly 0.04 µg/mL. In assay [6], the binding result is “binds”.

B2: H28L16 (antibody, human IgG1, kappa)
heavy: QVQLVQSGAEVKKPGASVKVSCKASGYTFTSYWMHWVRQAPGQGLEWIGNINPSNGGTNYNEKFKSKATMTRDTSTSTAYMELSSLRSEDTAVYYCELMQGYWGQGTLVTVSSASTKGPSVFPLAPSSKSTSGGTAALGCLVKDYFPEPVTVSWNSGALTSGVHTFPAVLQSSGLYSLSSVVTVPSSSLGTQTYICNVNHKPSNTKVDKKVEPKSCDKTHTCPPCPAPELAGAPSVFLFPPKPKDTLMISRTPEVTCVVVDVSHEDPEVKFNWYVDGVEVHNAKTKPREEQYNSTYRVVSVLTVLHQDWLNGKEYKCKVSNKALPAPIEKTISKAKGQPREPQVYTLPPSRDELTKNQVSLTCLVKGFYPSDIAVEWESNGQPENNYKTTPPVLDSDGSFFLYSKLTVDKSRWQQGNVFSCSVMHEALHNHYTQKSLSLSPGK
light: DIVMTQSPLSNPVTLGQPVSISCRSSKSLLYKDGKTYLNWFLQRPGQSPQLLIYLMSTRASGVPDRFSGGGSGTDFTLKISRVEAEDVGVYYCQQLVEYPLTFGQGTKLEIKRTVAAPSVFIFPPSDEQLKSGTASVVCLLNNFYPREAKVQWKVDNALQSGNSQESVTEQDSKDSTYSLSSTLTLSKADYEKHKVYACEVTHQGLSSPVTKSFNRGEC
notes: IgG1 (L235A, G237A) / kappa; CAMPATH-1H signal (1-19) left out; also called H28FL L16FL; NOGO H28L16
With B2, the “IC50 (read off the curve)” value with GST-human NOGO-A56 [7] and in the assay with GST-human NOGO-A56 [13] was roughly 4 µg/mL in each case. The “fold lower affinity than for human Nogo-A” value is 8.5 fold in [8], roughly 4 fold in assay [9], 17 fold in assay [10] and 12 fold in assay [14]. Moreover, the binding result is given as “binds” in [6]; “binds” in [11]; “binds” in assay [12]; “binds” in the assay with Human C1q (Sigma, C0660).

Values taken from patent US20130287781A1 (GlaxoSmithKline, published 2013).
